Results: publication PMC6993239

Assays:
[1] = target: recombinant human FcγRI, histidine-tagged (human) (UniProt P12314); assay: SPR
[2] = target: histidine-tagged mouse FcγRI (mouse) (UniProt P26151); assay: SPR; Biacore T200; His-tagged muFcγRI (2.4 nM) captured on an anti-histidine antibody CM5 chip; pertuzumab or conjugates as analyte, association and dissociation 120 s each; steady-state analysis
[3] = target: recombinant human FcγRI, histidine-tagged (human) (UniProt P12314); assay: SPR; Biacore T200; His-tagged huFcγRI (0.8 nM) captured on an anti-histidine antibody CM5 chip; pertuzumab or conjugates 0.78-100 nM as analyte, 5 min association, 5 min dissociation, 30 μL/min; HBS-P+ with 50 μM EDTA; 1:1 fit (RI set to 0)

UniProt P26151, sequence (P26151 25-297): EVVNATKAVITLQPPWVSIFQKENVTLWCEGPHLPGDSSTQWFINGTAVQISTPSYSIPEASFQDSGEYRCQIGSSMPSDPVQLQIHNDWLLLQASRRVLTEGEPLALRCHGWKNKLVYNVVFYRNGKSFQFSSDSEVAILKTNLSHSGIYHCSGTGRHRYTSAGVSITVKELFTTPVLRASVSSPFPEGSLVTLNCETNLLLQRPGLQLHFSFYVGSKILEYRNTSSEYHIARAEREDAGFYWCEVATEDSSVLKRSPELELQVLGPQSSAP
UniProt P12314, sequence (P12314 16-292): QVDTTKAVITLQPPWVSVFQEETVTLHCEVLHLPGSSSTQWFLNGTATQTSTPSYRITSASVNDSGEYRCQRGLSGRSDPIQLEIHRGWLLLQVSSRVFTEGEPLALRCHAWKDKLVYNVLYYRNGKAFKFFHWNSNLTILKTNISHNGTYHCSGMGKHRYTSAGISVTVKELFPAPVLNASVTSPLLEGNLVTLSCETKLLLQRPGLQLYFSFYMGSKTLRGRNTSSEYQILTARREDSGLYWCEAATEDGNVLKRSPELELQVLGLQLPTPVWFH

**Q.** Which koff [1] does the source give for DFO-^nsspertuzumab here?
**A.** 0.00156 s⁻¹

**Q.** DFO-^nsspertuzumab (antibody) was tested. Which Kd [2] did it give?
**A.** 250 nM

**Q.** And the Kd [3]?
**A.** 4.1 nM

**Q.** And the interaction half-time [3]?
**A.** 7.4 min

**Q.** With DFO-^sspertuzumab-EndoS as the substance, how does the koff [1] read?
**A.** 0.00387 s⁻¹

**Q.** For DFO-^sspertuzumab-βGal (antibody), which Kd [2] is on record?
**A.** 210 nM

**Q.** And the interaction half-time [3]?
**A.** 8 min

**Q.** native pertuzumab (antibody) was tested. Which Kd [2] did it give?
**A.** 250 nM

**Q.** What about the interaction half-time [3] of the same substance?
**A.** 7.3 min

**Q.** DFO-^sspertuzumab-EndoS (antibody) was tested. Which Kd [2] did it give?
**A.** 1100 nM

**Q.** What about the Kd [3] of the same substance?
**A.** 17.4 nM

**Q.** What about the interaction half-time [3] of the same substance?
**A.** 3 min
